# Patent US20140093496A1 (Chugai, published 2014)
# Residue numbers refer to the chain shown, from its start. Names and notes keep the numbering of the source.
# T1: FcγRIIa type R extracellular domain with C-terminal His tag (human, UniProt P12318 34-217)
# T1 construct: extracellular domain; also called FcgRIIaR; FcγRIIaR
# T1 sequence (looked up): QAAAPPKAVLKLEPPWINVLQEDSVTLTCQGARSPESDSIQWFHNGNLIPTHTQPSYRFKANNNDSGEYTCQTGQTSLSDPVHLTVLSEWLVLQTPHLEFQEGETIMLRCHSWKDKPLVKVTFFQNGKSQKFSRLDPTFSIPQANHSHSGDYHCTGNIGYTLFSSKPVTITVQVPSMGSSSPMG
# T2: FcγRIIb extracellular domain, C-terminal His tag (human, UniProt P31994 43-217)
# T2 construct: extracellular domain; also called FcgRIIb; CD32B; not shown: His tag at the C terminus
# T2 sequence (looked up): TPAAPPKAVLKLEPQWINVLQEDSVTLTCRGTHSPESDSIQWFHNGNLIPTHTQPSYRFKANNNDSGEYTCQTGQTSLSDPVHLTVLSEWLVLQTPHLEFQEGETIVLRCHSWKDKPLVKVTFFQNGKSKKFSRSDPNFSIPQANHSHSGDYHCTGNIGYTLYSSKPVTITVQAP
# T3: FcγRIIa type R extracellular domain, C-terminal His tag (human, UniProt P12318 34-217)
# T3 construct: extracellular domain; also called FcgRIIaR; FcγRIIaR; not shown: His tag at the C terminus
# T3 sequence (looked up): T1 sequence (looked up)
# T4: FcγRIIa type R extracellular domain with C-terminal His tag (human, UniProt P12318 34-217)
# T4 chain: T1 sequence (looked up)
# T5: FcγRIIb extracellular domain with C-terminal His tag (human, UniProt P31994 43-217)
# T5 construct: extracellular domain; also called FcgRIIb
# T5 sequence (looked up): T2 sequence (looked up)
# T6: FcγRIIa type H extracellular domain with C-terminal His tag (human, UniProt P12318 34-217)
# T6 construct: extracellular domain; also called FcgRIIaH; FcγRIIaH
# T6 sequence (looked up): T1 sequence (looked up) with R134H
# B1: IL6R-BP085/IL6R-L (antibody, human IgG1, kappa)
# heavy: QVQLQESGPGLVKPSETLSLTCAVSGHSISHDHAWSWVRQPPGEGLEWIGFISYSGITNYNPSLQGRVTISRDNSKNTLYLQMNSLRAEDTAVYYCARSLARTTAMDYWGEGTLVTVSSASTKGPSVFPLAPSSKSTSGGTAALGCLVKDYFPEPVTVSWNSGALTSGVHTFPAVLQSSGLYSLSSVVTVPSSSLGTQTYICNVNHKPSNTKVDKKVEPKSCDKTHTCPPCPAPELLGDDSVFLFPPKPKDTLMISRTPEVTCVVVDVSHEDPEVKFNWYVDGVEVHNAKTKPREEQYNSTYRVVSVLTVLHQDWLNGKEYKCKVSNKALPKPIEKTISKAKGQPREPQVYTLPPSRDELTKNQVSLTCLVKGFYPSDIAVEWESNGQPENNYKTTPPVLDSDGSFFLYSKLTVDKSRWQQGNVFSCSVMHEALHNHYTQESLSLSP
# light: not shown
# notes: G237D/P238D/A330K (EU) in IL6R-B3; copies: 2 + 2
# B2: IL6R-BP136/IL6R-L (antibody, human IgG1, kappa)
# heavy: B1 heavy with D239G, K328A, K332A
# light: not shown
# notes: IgG1; P238D/K326A (EU numbering) introduced into IL6R-B3
# B3: IL6R-BP180/IL6R-L (antibody, human IgG1, kappa)
# heavy: B1 heavy with P273G
# light: not shown
# notes: G237D/P238D/P271G/A330K (EU) in IL6R-B3; copies: 2 + 2
# B4: IL6R-BP117/IL6R-L (antibody, human IgG1, kappa)
# heavy: B1 heavy with D239G, K328D, K332A
# light: not shown
# notes: IgG1; P238D/K326D (EU numbering) introduced into IL6R-B3
# B5: IL6R-PD082/IL6R-L (antibody, human IgG1, kappa)
# heavy: B1 heavy with D239F, M254Y, K332A, N436Y, E441K
# light: not shown
# notes: IL6R-F11 with P238D/G237F; copies: 2 + 2
# B6: IL6R-BP190/IL6R-L (antibody, human IgG1, kappa)
# heavy: B1 heavy with H270D, P273G
# light: not shown
# notes: G237D/P238D/H268D/P271G/A330K (EU) in IL6R-B3; copies: 2 + 2
# B7: IL6R-BP185/IL6R-L (antibody, human IgG1, kappa)
# heavy: B1 heavy with E235D, L236Y, P273G, K328A
# light: not shown
# notes: E233D/L234Y/G237D/P238D/P271G/K326A/A330K (EU) in IL6R-B3; copies: 2 + 2
# B8: IL6R-BP187/IL6R-L (antibody, human IgG1, kappa)
# heavy: B1 heavy with L236Y, D239G, P273G, K328A
# light: not shown
# notes: L234Y/P238D/P271G/K326A/A330K (EU) in IL6R-B3; copies: 2 + 2
# B9: IL6R-PD086/IL6R-L (antibody, human IgG1, kappa)
# heavy: B1 heavy with D239L, M254Y, K332A, N436Y, E441K
# light: not shown
# notes: IL6R-F11 with P238D/G237L; copies: 2 + 2
# B10: IL6R-PD095/IL6R-L (antibody, human IgG1, kappa)
# heavy: B1 heavy with D239Y, M254Y, K332A, N436Y, E441K
# light: not shown
# notes: IL6R-F11 with P238D/G237Y; copies: 2 + 2
# B11: IL6R-PD081/IL6R-L (antibody, human IgG1, kappa)
# heavy: B1 heavy with D239E, M254Y, K332A, N436Y, E441K
# light: not shown
# notes: IL6R-F11 with P238D/G237E; copies: 2 + 2
# B12: IL6R-PD097/IL6R-L (antibody, human IgG1, kappa)
# heavy: B1 heavy with D239G, S241D, M254Y, K332A, N436Y, E441K
# light: not shown
# notes: IL6R-F11 with P238D/S239D; copies: 2 + 2
# B13: IL6R-PD094/IL6R-L (antibody, human IgG1, kappa)
# heavy: B1 heavy with D239W, M254Y, K332A, N436Y, E441K
# light: not shown
# notes: IL6R-F11 with P238D/G237W; copies: 2 + 2
# B14: IL6R-BP148/IL6R-L (antibody, human IgG1, kappa)
# heavy: B1 heavy with E235D, L236Y, K328A
# light: not shown
# notes: E233D/L234Y/G237D/P238D/K326A/A330K (EU) in IL6R-B3; copies: 2 + 2
# Experiments:
# [1] = target: T1, FcγRIIa type R extracellular domain …; assay: SPR (Biacore)
# Text: (§1) IL6R-L was utilized as the common antibody L chain for all of the antibodies, the antibodies were expressed and purified according to the method of Reference Example 1, and binding to each of the FcγRs (FcγRIa, FcγRIIa H type, FcγRIIa R type, FcγRIIb, and FcγRIIIa V type) was comprehensively evaluated by the method of Reference Example 2.
# (§2) Furthermore, KD(IIaR)/KD(IIb) and KD(IIaH)/KD(IIb) in the table respectively represent the value obtained by dividing the KD value of each variant for FcγRIIaR by the KD value of each variant for FcγRIIb, and the value obtained by dividing the KD value of each variant for FcγRIIaH by the KD value of each variant for FcγRIIb. KD(IIb) of the parent polypeptide/KD(IIb) of the altered polypeptide refers to the value obtained by dividing the KD value of the parent polypeptide for FcγRIIb by the KD value of each variant for FcγRIIb.
# [2] = target: T7, FcγRIIIa type V extracellular domain with C-terminal His tag (human, UniProt P08637 17-208); assay: SPR (Biacore)
# T7 construct: extracellular domain; also called FcgRIIIaV; FcγRIIIaV
# Text: as §1, §2
# T7 sequence (P08637 17-208 F176V): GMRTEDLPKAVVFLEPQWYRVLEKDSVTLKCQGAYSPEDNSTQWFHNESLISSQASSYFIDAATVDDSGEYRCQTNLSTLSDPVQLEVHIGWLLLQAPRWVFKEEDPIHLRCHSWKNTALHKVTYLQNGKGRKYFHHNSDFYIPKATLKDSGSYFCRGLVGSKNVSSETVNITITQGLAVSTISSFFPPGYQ
# [3] = target: T2, FcγRIIb extracellular domain, …; assay: SPR (Biacore), antibody captured, FcγR as analyte
# Text: as §2
# (§3) Kinetic analyses for calculating the KD values of each altered antibody for FcγR were performed according to the following method. First, antibodies of interest were captured onto the above-mentioned sensor chips, and an Fcγ receptor diluted with the running buffer was allowed to interact. The Biacore Evaluation Software was used to globally fit the measured results to the obtained sensorgram using the 1:1 Langmuir binding model, and the association rate constant ka (L/mol/s) and the dissociation rate constant kd (1/s) were calculated; and from those values the dissociation constants KD (mol/L) were calculated.
# [4] = target: T8, FcγRIa extracellular domain with C-terminal His tag (human, UniProt P12314 16-292); assay: SPR (Biacore)
# T8 construct: also called FcgRIa
# Text: as §1, §2
# [5] = target: T3, FcγRIIa type R extracellular domain, …; assay: SPR (Biacore), antibody captured, FcγR as analyte
# Text: as §2, §3
# [6] = target: T9, FcγRIIIa type V extracellular domain with C-terminal His tag (human, UniProt P08637 17-208); assay: SPR (Biacore), antibody captured, FcγR analyte
# T9 construct: extracellular domain; also called FcγRIIIaV; FcgRIIIaV; not shown: His tag at the C terminus
# Text: as §2, with “respectively show” for “respectively represent”, “to a” for “to the”
# as §3
# T9 sequence (P08637 17-208 F176V): as above
# [7] = target: T4, FcγRIIa type R extracellular domain …; assay: SPR (Biacore), antibody captured, FcγR analyte
# Text: as §2, with “respectively show” for “respectively represent”, “to a” for “to the”
# as §3
# [8] = target: T5, FcγRIIb extracellular domain with …; assay: SPR (Biacore)
# Text: as §1, §2
# [9] = target: T6, FcγRIIa type H extracellular domain …; assay: SPR (Biacore)
# Text: as §1, §2
# T8 sequence (P12314 16-292): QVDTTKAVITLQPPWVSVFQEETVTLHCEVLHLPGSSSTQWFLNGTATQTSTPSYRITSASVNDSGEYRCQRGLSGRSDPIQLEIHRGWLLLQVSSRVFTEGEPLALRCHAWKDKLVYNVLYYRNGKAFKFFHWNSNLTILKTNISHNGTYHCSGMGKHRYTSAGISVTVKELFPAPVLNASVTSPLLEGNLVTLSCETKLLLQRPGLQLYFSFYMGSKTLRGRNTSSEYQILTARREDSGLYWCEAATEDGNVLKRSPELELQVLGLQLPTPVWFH
Binder,Kd [2] [µM],Kd [6] [µM],Kd [7] [µM],also measured
B1,68,–,–,Kd [1]: 4.2 µM
B2,–,–,–,Kd [3]: 0.8 µM
B3,70,–,–,Kd [4]: 0.098 µM
B4,–,–,–,Kd [3]: 0.8 µM; Kd [5]: 9.2 µM
B5,–,43,14,–
B6,45,–,–,–
B7,36,–,–,Kd [8]: 0.069 µM; Kd [1]: 0.88 µM
B8,56,–,–,Kd [4]: 0.025 µM; Kd [1]: 2.8 µM
B9,–,41,–,–
B10,–,42,7.9,–
B11,–,41,38,–
B12,–,17,3.5,–
B13,–,38,7.2,–
B14,30,–,–,Kd [9]: 7 µM
